Target: RXFP1 construct pVL-11 (FLAG-eGFP-M82-S707-Avi) (human) (UniProt Q9HBX9)
Test: SPR; receptor constructs captured via biotinylated Avi-tag on an SA chip (3000-5000 RU), Biacore T200, 20°C; running buffer 20 mM HEPES pH 7.5, 150 mM NaCl, 0.01% BSA, 0.1% DDM, 0.01% CHS; relaxin injected at 0.41-100 nM; kinetic fits; triplicates

Sequence of UniProt Q9HBX9 (Q9HBX9 82-707): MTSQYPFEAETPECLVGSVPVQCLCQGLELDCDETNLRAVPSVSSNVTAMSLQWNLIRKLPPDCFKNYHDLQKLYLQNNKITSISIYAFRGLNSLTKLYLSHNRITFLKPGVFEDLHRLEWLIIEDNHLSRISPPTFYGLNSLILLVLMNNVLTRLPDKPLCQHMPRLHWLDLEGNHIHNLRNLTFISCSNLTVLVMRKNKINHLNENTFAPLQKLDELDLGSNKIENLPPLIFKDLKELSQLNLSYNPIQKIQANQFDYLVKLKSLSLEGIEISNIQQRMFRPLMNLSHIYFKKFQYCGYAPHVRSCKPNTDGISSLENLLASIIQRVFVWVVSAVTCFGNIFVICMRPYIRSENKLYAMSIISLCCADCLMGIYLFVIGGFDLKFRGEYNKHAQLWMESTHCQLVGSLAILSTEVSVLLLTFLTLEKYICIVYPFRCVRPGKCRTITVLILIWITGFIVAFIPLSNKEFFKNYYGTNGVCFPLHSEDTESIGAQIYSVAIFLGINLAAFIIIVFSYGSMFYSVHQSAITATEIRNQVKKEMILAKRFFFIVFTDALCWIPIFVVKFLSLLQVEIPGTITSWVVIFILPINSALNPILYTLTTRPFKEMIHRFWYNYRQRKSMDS

Substance Relaxin H2 (human) (ligand) has a Kd of 20 nM.

From publication PMC8832513
